Test results from PMC5645249.
Residue numbers refer to the chain shown, from its start. Names may count otherwise.

B1: Synechococcus sp. PCC 7942 NR (ferredoxin-dependent nitrate reductase) (Synechococcus elongatus PCC 7942 = FACHB-805; K215R) (protein)
chain: MIDTAKTLCPYCGVGCGLEAVPPAQPGRATVRDREGTPIWQIRGDRQHPSSQGMVCVKGATVAESVSKSRLKYPMFRASLDDPFTEISWDEALDRLCDRIQQTQADYGKDGICFYGSGQFQTEDYYIAQKLVKGCLGTNNFDTNSRLCMSSAVSAYSLCLGSDGPPACYEDLDLADCLLIVGSNTAECHPILFNRYRKRHRQGGTNLIVVDPRCTPTAEVADLHLALKPGSDVALLNGLGWLLYQMGYVKKDFIANQTEGFEDWLAIIEDYPPQRTAELTGLAVAELVRAADLIASAQRWLSLWSMGVNQSIQGTAKATSLINLHLLTRQIGLPGCGPFSLTGQPNAMGGRETGGLAHLLPGYRKVIDPQHRADVETIWGLPMGSISPQPGRTAWQMIEGLEQGAVGFLWVAATNPAVSLPDVKRAQAALKRSPFTVLQDAYHPTETTTYAHLLLPAAQWSEKTGTMTNSERRVTLCQAFRQPPGEARADWQIFAEVGRRLGFAFDYTDAAAVFAEYVQVTAGRLCDLSGLSHELLAQAGPQQWPFPAGAEPTTESKRLYTKHHFAYADGRARFQPFHHLGVAEPPDDRYPLVLTVGRLYGHWHTQTRTGRIDKINKLHPSAFVEIHPRDADRYNISEGQAVVIRSRRGEGCFPAKVTTAISPGVLFVPMHWGALWGDRTEANALTHPAACPISGEPELKACAVQIEAASSTFTI
B2: Synechococcus sp. PCC 7942 NR (ferredoxin-dependent nitrate reductase) (Synechococcus elongatus PCC 7942 = FACHB-805; R60Q) (protein)
chain: B1 chain with R46Q, R201K
B3: Synechococcus sp. PCC 7942 NR (ferredoxin-dependent nitrate reductase) (Synechococcus elongatus PCC 7942 = FACHB-805; E233Q) (protein)
chain: B1 chain with R201K, E219Q
B4: Synechococcus sp. PCC 7942 NR (ferredoxin-dependent nitrate reductase) (Synechococcus elongatus PCC 7942 = FACHB-805; R60K) (protein)
chain: B1 chain with R46K, R201K
B5: Synechococcus sp. PCC 7942 NR (ferredoxin-dependent nitrate reductase) (Synechococcus elongatus PCC 7942 = FACHB-805; R211Q) (protein)
chain: B1 chain with R197Q, R201K
B6: Synechococcus sp. PCC 7942 NR (ferredoxin-dependent nitrate reductase) (Synechococcus elongatus PCC 7942 = FACHB-805; R57K) (protein)
chain: B1 chain with R43K, R201K
B7: Synechococcus sp. PCC 7942 NR (ferredoxin-dependent nitrate reductase) (Synechococcus elongatus PCC 7942 = FACHB-805; K628R) (protein)
chain: B1 chain with R201K, K614R

substrate: O=[N+]([O-])O; assay: nitrate reduction with reduced Fd, Michaelis-Menten fit; type: biochemical, Synechococcus elongatus; conditions: saturating reduced Synechocystis sp. PCC 6803 ferredoxin as electron donor

For B1, which Km is on record?
The Km was 9.6 ± 1.0 µM.

B2 was tested. Which Km did it give?
The Km was 55 ± 20 µM.

B3 was tested. Which Km did it give?
The Km was 4.5 ± 0.4 µM.

B4 was tested. Which Km did it give?
Its Km is 6.6 ± 1.0 µM.

How did the Km turn out when B5 was run?
The Km was 7.0 ± 0.7 µM.

How did the Km turn out when B6 was run?
Its Km is 8.1 ± 0.7 µM.

How did the Km turn out when B7 was run?
The Km was 4.2 ± 0.5 µM.
